Data from PMC9356133, “Regulatory mechanisms of lipopolysaccharide synthesis in Escherichia coli” (Nature Communications, 2022).

B1: LapB cytoplasmic domain (LapB_(cyto)) (domain or fragment, Escherichia coli strain CFT073, UniProt P0AB58 21-389, looked up)
chain: RRSAQQNKQDEANRLSRDYVAGVNFLLSNQQDKAVDLFLDMLKEDTGTVEAHLTLGNLFRSRGEVDRAIRIHQTLMESASLTYEQRLLAIQQLGRDYMAAGLYDRAEDMFNQLTDETDFRIGALQQLLQIYQATSEWQKAIDVAERLVKLGKDKQRVEIAHFYCELALQHMASDDLDRAMTLLKKGAAADKNSARVSIMMGRVFMAKGEYAKAVESLQRVISQDRELVSETLEMLQTCYQQLGKTAEWAEFLQRAVEENTGADAELMLADIIEARDGSEAAQVYITRQLQRHPTMRVFHKLMDYHLNEAEEGRAKESLMVLRDMVGEKVRSKPRYRCQKCGFTAYTLYWHCPSCRAWSTIKPIRGLDGL
B2: LpxC labeled with Atto488 (enzyme, Escherichia coli strain CFT073, UniProt P0A725 1-305, looked up)
chain: MIKQRTLKRIVQATGVGLHTGKKVTLTLRPAPANTGVIYRRTDLNPPVDFPADAKSVRDTMLCTCLVNEHDVRISTVEHLNAALAGLGIDNIVIEVNAPEIPIMDGSAAPFVYLLLDAGIDELNCAKKFVRIKETVRVEDGDKWAEFKPYNGFSLDFTIDFNHPAIDSSNQRYAMNFSADAFMRQISRARTFGFMRDIEYLQSRGLCLGGSFDCAIVVDDYRVLNEDGLRFEDEFVRHKMLDAIGDLFMCGHNIIGAFTAYKSGHALNNKLLQAVLAKQEAWEYVTFQDDAELPLAFKAPSAVLA
modifications: Atto488 dye (Atto488 protein labeling kit, protein to dye ratio of 6:1)
notes: LpxC, amplified from Escherichia coli strain CFT073 genomic DNA; His tag removed by 3C protease; also called LpxC-Atto488; source: E. coli BL21 Star (DE3) pLysS, purified (Ni-NTA, 3C cleavage, gel filtration), labeled with Atto488; not shown: His tag, N-terminal, cleaved

What was measured:
[1] = target: B2; assay: cell-based or functional assay
[2] = target: B1; assay: inhibition of a protease assay (Kd calculated from the IC50); 0.06 μM FtsH/LapB complex on POPC liposomes, 1.8 μM LpxC-Atto488, 0-12.96 μM LapB_(cyto) in solution, 37 °C, 20 min; Kd = (IC50 – 2KM/3)/2; conditions: both partners purified
FtsH (non-tagged) = FtsH (non-tagged) (Escherichia coli strain CFT073, UniProt P0AAI3 1-644); assay: cell-based or functional assay
Sequence of FtsH (non-tagged) (P0AAI3 whole entry): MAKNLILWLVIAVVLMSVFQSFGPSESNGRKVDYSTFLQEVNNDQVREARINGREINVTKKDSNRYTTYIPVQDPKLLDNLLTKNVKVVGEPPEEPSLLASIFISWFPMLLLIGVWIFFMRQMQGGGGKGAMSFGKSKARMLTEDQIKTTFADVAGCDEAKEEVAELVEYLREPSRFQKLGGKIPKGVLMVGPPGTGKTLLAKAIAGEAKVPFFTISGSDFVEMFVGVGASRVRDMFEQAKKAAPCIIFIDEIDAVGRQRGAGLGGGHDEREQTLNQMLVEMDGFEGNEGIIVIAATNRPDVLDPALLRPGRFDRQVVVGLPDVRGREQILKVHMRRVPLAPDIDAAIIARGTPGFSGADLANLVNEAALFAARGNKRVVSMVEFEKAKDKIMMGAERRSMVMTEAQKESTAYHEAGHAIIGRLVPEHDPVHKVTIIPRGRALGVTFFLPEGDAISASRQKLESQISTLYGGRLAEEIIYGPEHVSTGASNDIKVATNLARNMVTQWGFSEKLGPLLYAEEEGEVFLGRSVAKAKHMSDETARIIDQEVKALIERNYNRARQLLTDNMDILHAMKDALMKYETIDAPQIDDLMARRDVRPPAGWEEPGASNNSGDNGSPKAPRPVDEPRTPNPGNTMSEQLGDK

Binder | IC50 of inhibition of LpxC-Atto488 degradation by FtsH/LapB proteoliposomes (0-12.96 μM LapB_(cyto)) [1] [nM] | Kd [2] [nM] | fold reduction by LapB of the KM for LpxC degradation by FtsH proteoliposomes (FtsH (non-tagged)) [fold]
B1 | 3960 | – | –
B2 | – | 1340 | ~8
